The record followed here is the supplement of paper PMC12042874.

± gives the uncertainty stated by the source.

The data set can be described thus: amyloid nucleation score (Sup35N fusion, yeast selection) (log enrichment); library NNK2; higher = more nucleation; inactive = no reads after selection. The method, boiled down:
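DiMSum was used to calculate nucleation scores as log enrichment of output over input reads, centred on the mode score of non-aggregating sequences. Sequences with fewer than 100 input reads were not scored. Input and output came from Illumina sequencing of plasmid inserts in psi-negative yeast expressing peptides of 20 random codons fused to Sup35N, induced 24 hours with 100 μM copper sulfate and then grown 7 days at 30°C on medium lacking adenine and uracil.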
As for YALWFVIWEVGRGFLVVISF, the amyloid nucleation score result was “inactive”. With YANDFLRLVHVWFREVIIKL the figure was -0.398 ± 1; with YAPGVLLSSMNDMAEYKGGI, -0.14 ± 0.28; with YAQQIVVLVAGPWWSWTRRG, 0.791 ± 0.81.

As to YASYICIQHYCFFLAYYNML, the amyloid nucleation score result was “inactive”.

As to YAVWLDMGFILIIACVGKYN, the amyloid nucleation score was -0.747 ± 1.1. With YAYAEWERNRWRRDDNLNVE the figure was -0.251 ± 0.38; with YCALWTTTE, 1.62 ± 0.18.

With YCIKLRRYQNDKFWFNYTQV, the amyloid nucleation score was 4.35 ± 0.086. With YCKFYWNHNVYCLVALWRLW the figure was -0.149 ± 0.79. With YCLSIWIDLSFIFVIRVDSG the entry was “inactive”; with YCMCIFATLG, -0.398 ± 0.76; with YCRHIAVECSVGLHWHGGTV, 3.26 ± 0.15. The same measure for YCRMYSRNVDGVWHTISKLD: 0.108 ± 0.42. In the case of YCVSPELDWTSIARGHTFNV, the amyloid nucleation score is -0.509 ± 1.1. For the substance YCWWRSWEPKILRCSLVLVK, the amyloid nucleation score was determined as 0.281 ± 0.44. The same measure for YDGFDITYSYDLSVVFCVDR: 0.046 ± 0.44; for YDHDLINRKITSGHKVYFIG: -0.586 ± 0.49. The same measure for YDPVAVF: -0.945 ± 0.43; for YDRDCTRPCSPSSRGNFRDE: “inactive”; for YDSTVFTITWAKWDVYSLST: 2.36 ± 0.096. The same measure for YDVSFTFLWW: 0.242 ± 0.61. For the substance YEGLF, the amyloid nucleation score entry is “inactive”. The same measure for YEPSATEPRLRRFHGEARLL: 0.32 ± 0.65; for YERMWCHLLVLRPNKQK: 0.697 ± 0.81; for YESHLCVFTCWTFRFLNVMD: -1.01 ± 1.1.

YEYVSYCVSDFRYLLQTV came in with an amyloid nucleation score of 0.436 ± 0.66. With YFFSISWTCYFR, the amyloid nucleation score is 3.27 ± 0.044. With YFLKSYGAFSMFQM the figure was 3.19 ± 0.15.

YFLVKFSSNTFIVWTHRYFQ: the amyloid nucleation score worked out at 0.057 ± 1.1.

In the case of YFMVHIMGTVKIGRW, the amyloid nucleation score was 3.13 ± 0.098. The same measure for YFNSLTQISSFRKFSRPLHS: 0.033 ± 0.38. The same measure for YFRAYWTCSEC: “inactive”; for YFSWTWVVFNAFNEVRFWTW: -1.59 ± 0.61.

YFVFHDQKSTNLGWIFVFCR had an amyloid nucleation score of 0.108 ± 0.65. For the substance YFVGWCIYEVNAYISVPVVF, the amyloid nucleation score entry is “inactive”.

Consider YFWFYTV, for which the amyloid nucleation score is -0.691 ± 0.34.

YGAYVYINSFCKYNIIRSRS registered an amyloid nucleation score of 6.034 ± 0.043. With YGFCAFTHSC the figure was -0.554 ± 1; with YGLAC, 2.44 ± 0.072; with YGMKTGVNIFVVDVEMVKRS, 5.93 ± 0.068.

YGPICEYFQGCEALSWWSTC had an amyloid nucleation score of 0.39 ± 0.2. With YGPSCSICPVVVIPSF the entry was “inactive”; with YGRLECISWCPISIHCGGAR, 3.47 ± 0.11; with YGSSGK, -0.362 ± 0.38. On to YGVYVRCYLDGSLWWNFTAW, for which the amyloid nucleation score result was “inactive”. With YHCRSEVTCWLEYDG the figure was 0.712 ± 0.28. With YHCVEYLGARL the figure was 0.083 ± 0.63; with YHSFLWKINSCAVMMEDSTG, 0.811 ± 0.67; with YHYGNGVAWDMTRKPRHHFV, -0.243 ± 0.41.

For the substance YICSFYEADRSTRCFLIFFF, the amyloid nucleation score is -1.23 ± 0.44.

In the case of YIFSSVNERLCPALNGWHLD, the amyloid nucleation score result was “inactive”. With YILAFVILAMEAWHRV the figure was 3.68 ± 0.086; with YILLWVYIHDGLAWSTLLDW, 0.757 ± 0.6.

On to YILNMFKETLDVLVLKRNCF, for which the amyloid nucleation score was -1.18 ± 1.1. With YIMSFRY the figure was -0.592 ± 0.79; with YINSMLSSYFDSLWEGSKSR, -0.109 ± 0.27. With YIPNDCTTRDCLTYMMSWMF the figure was -0.077 ± 0.63; with YISCYCRSSFRMLSVVSDYR, 2.54 ± 0.077; with YISVKMRSGRTSTLSDCVKA, 3.83 ± 0.076. Consider YITFSDRLWTLLLWCRILWL, for which the amyloid nucleation score is -0.002 ± 1. With YITYSREAETCIFVKGDFS the figure was -0.153 ± 1.1. With YIVCYAVSGLVWSIGSHEGM the figure was 1.86 ± 0.13; with YIWLDAYFTESGILYYLMIR, “inactive”; with YIWYFKMEVDYVLMMYAVAG, 0.183 ± 1. The same measure for YIYETTLCYNTIPGL: -0.848 ± 0.29; for YKGQCSILLGRVRWDFSSSS: -1.02 ± 0.78.

Consider YKHFSGFLDFQVPAFSGYVS, for which the amyloid nucleation score entry is “inactive”. The same measure for YKILQFETSFRT: -0.977 ± 0.63; for YKLAFQSYIDGLLIL: “inactive”.

As to YKLGVKPMKAG, the amyloid nucleation score was -0.224 ± 0.79. As for YKNVAFCFVRMFFEGHSINC, the amyloid nucleation score was -1.45 ± 0.76.

For the substance YKSSGLLSYTSIGNVDIYFV, the amyloid nucleation score stood at 6.26 ± 0.079. As for YKSVERTASRMIQIEVFWEY, the amyloid nucleation score entry was “inactive”. With YKTFFLVASAKVNEAPGQRG the entry was “inactive”. The same measure for YKWVVPDWSWVLEMALSLPT: 0.346 ± 0.5; for YLCVYIRLYFMPLRYWKKMC: -0.606 ± 0.44; for YLDAHILHE: 4.54 ± 0.087.

On to YLFDLVFILEQYFWL, for which the amyloid nucleation score was 2.85 ± 0.049. On to YLGAGPSNILCHPFISAGSN, for which the amyloid nucleation score entry was “inactive”. With YLLFTMRNLLILGRQGRSSL the figure was -0.905 ± 0.45. The same measure for YLLVLFGSGTYITPTLLRIN: -1.55 ± 0.49; for YLNGLTYWDIMLPWAII: -0.324 ± 1.1; for YLRTYLW: -0.208 ± 0.49. The same measure for YLRVKMPVIRVIVR: “inactive”; for YLSAAVKTEVV: 0.619 ± 0.37; for YLSDNLIAFWIVHNQWMIMA: 6.005 ± 0.035. Consider YLTFLNASTSRYKLSLVPRR, for which the amyloid nucleation score amounted to 4.11 ± 0.082. With YLVGCKDSRTSLSSLICIRL, the amyloid nucleation score is 8.842 ± 0.03. The same measure for YLVPFWVVDCFDGLD: 0.072 ± 1.1. YLVYKMNNGCLCNIFAPVTE returned an amyloid nucleation score of 8.303 ± 0.064.

Regarding YMIFCLSIYEDDEALGPTER, the amyloid nucleation score is -0.287 ± 0.21. On to YMRMIYCMFRGNCWVVIVEA, for which the amyloid nucleation score stood at 0.216 ± 0.49. The same measure for YMSNPSELWKNWILVHYHFC: 3.56 ± 0.076; for YMSPAH: 0.606 ± 0.6; for YMTVSRVHISRVCCVYTLNV: 5.44 ± 0.064.

Substance YMWVCACRMSLIHGLSGHHD gave an amyloid nucleation score of 0.536 ± 0.46. The same measure for YNFDYTLMNYPLKAVPSEW: 8.286 ± 0.053; for YNISDLSMSYMAIRAYDSGS: -1.38 ± 0.62; for YNLSVFQVITAPHEGDNRAW: 4.55 ± 0.049. The same measure for YNMMSKFNIFGYYACKSSWK: 1.27 ± 0.14; for YNPLLIV: 0.082 ± 0.56; for YNQRTFVSVSYEWTSGPWVC: 0.334 ± 0.33. With YNSNFPTLYWG the entry was “inactive”; with YNSPSDWDTIISSIILF, -1.21 ± 1.1; with YNTISDWTSLEPYTLVRVLL, 1.91 ± 0.064. Consider YNVTYLLRCFSILVSRVLKV, for which the amyloid nucleation score entry was “inactive”.

Take YPKSLV: the amyloid nucleation score is -0.698 ± 1.1. Substance YPVCGCRLSRLVHNSTVDKV had an amyloid nucleation score of 0.639 ± 0.46.

For the substance YQFTGFLLGRVIASIIRHGV, the amyloid nucleation score came to 0.023 ± 0.45. The same measure for YQSVRK: -0.022 ± 0.55; for YRAAWSSAAG: -0.137 ± 1.1; for YRDNCMRNIENSVT: -0.802 ± 0.54. With YREACCCNSFACPGATDVGP the figure was 9.188 ± 0.046; with YRFAGYVTPRFGYKSHNISL, -1.22 ± 1.1; with YRGSGLMNTSDFVSVLALVN, “inactive”.

Consider YRLAWGH, for which the amyloid nucleation score is -0.363 ± 1.1. With YRTCNIDGL the entry was “inactive”; with YRVDSHWANLVLKTSMIWTT, -0.829 ± 0.28; with YRWNYWFVVMMRPSSEDYLR, 4.951 ± 0.047. With YSAVKCFPYRLPLNYAQIGA the figure was 0.358 ± 0.53. The same measure for YSGAYRLHYGFHIIICVCRW: 3.21 ± 0.066. YSGLKCALCRCC: the amyloid nucleation score is 1.94 ± 0.3. In the case of YSGWFFCNFISLWV, the amyloid nucleation score was 6.529 ± 0.057.

With YSGWVSDS, the amyloid nucleation score result was “inactive”. The same measure for YSHATFSPASNSYQKG: 0.146 ± 0.56; for YSHSLHVIQKSFFCITVFVM: 5.28 ± 0.08; for YSIYEYG: 1.41 ± 0.15. With YSKDSMDSYMMIMFGSVACH the figure was 0.681 ± 0.6. YSLWLVVCYLLVCWNINCGT: the amyloid nucleation score came to 0.366 ± 0.44. With YSNSPCVIYNMKGRGSLLSH the figure was -1.6 ± 0.64. The same measure for YSRGWVHVI: 0.384 ± 0.56. With YSSTTITFYNWDRVTSRRLA the figure was -0.832 ± 0.44.

Regarding YSWSRVKFNSL, the amyloid nucleation score is 2.53 ± 0.076. For YSYSIRLRCFASRYIFVRVR, the amyloid nucleation score amounted to 0.436 ± 0.66. With YTFCKHDVYAISLRFVLAPY the figure was 7.304 ± 0.035; with YTGHFTSC, -0.496 ± 0.48.

YTMGLVSFCLQLGSASFDI yielded an amyloid nucleation score of 3.56 ± 0.12.
